# Measurements from patent US20220409663A1.
# Molecular target: transforming growth factor-beta receptor 2 (TGFBR2) (human) (UniProt P37173)
# Experiment: cell-based or functional assay
# UniProt P37173, sequence (P37173 23-567): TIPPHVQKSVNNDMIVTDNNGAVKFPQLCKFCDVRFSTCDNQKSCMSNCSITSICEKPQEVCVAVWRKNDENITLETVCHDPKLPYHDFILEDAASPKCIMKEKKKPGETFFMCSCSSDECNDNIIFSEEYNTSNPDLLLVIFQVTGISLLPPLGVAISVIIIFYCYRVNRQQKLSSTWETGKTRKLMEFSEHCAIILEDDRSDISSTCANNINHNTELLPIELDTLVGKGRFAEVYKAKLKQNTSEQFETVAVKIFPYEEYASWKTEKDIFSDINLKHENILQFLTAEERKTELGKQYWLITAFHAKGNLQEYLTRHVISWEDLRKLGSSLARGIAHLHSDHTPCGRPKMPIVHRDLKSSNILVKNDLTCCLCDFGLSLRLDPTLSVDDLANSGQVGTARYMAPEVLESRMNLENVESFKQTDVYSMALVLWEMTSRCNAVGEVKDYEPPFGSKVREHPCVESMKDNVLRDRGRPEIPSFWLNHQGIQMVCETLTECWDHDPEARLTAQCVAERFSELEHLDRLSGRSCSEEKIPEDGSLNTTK
substance,measurement,value
transforming growth factor-β (TGFβ) (ligand),"fold change in cytokine concentration from TGF-β:vehicle treated cells (pro-inflammatory cytokine secretion, 3 days, TGF-β 10 ng/ml) (fold change (ratio))",< 1
